{"source": "paper PMC11187625", "about": "“New Labeled PET Analogues Enable the Functional Screening and Characterization of PET-Degrading Enzymes” (ACS Sustainable Chemistry & Engineering, 2024)", "test_in_all_cases": "fluorescence, 4-mU release", "format_in_all_cases": "biochemical, Moraxella sp. TA144", "conditions_in_all_cases": "0.1 M phosphate pH 7, 30 °C, 5% DMSO", "key": {"[1]": {"system": "CCOCCOC(=O)c1ccc(C(=O)Oc2ccc3c(C)cc(=O)oc3c2)cc1", "text": "(§1) fluorescence, 4-mU release on MoPE (polyesterase)"}, "[2]": {"system": "COC(=O)c1ccc(C(=O)OCCOC(=O)c2ccc(C(=O)Oc3ccc4c(C)cc(=O)oc4c3)cc2)cc1", "text": "as §1"}, "[3]": {"system": "COC(=O)c1ccc(C(=O)Oc2ccc3c(C)cc(=O)oc3c2)cc1", "text": "as §1"}}, "data": [{"substance": "MoPE (polyesterase) (Moraxella sp. TA144)", "values": [{"measurement": "Km", "setting": "[1]", "value": "15.6 ± 1.5", "unit": "µM"}, {"measurement": "kcat", "setting": "[1]", "value": "0.00014 ± 1e-06", "unit": "s⁻¹"}, {"measurement": "Km", "setting": "[2]", "value": "17.4 ± 2.1", "unit": "µM"}, {"measurement": "Km", "setting": "[3]", "value": "1.9 ± 0.1", "unit": "µM"}, {"measurement": "kcat", "setting": "[3]", "value": "3e-05 ± 1e-06", "unit": "s⁻¹"}]}]}
